Values of other authors as cited in article PMC12524998.

Target: dysferlin (Homo sapiens) (UniProt O75923)
Assay: SPR

Sequence of UniProt O75923 (O75923 whole entry): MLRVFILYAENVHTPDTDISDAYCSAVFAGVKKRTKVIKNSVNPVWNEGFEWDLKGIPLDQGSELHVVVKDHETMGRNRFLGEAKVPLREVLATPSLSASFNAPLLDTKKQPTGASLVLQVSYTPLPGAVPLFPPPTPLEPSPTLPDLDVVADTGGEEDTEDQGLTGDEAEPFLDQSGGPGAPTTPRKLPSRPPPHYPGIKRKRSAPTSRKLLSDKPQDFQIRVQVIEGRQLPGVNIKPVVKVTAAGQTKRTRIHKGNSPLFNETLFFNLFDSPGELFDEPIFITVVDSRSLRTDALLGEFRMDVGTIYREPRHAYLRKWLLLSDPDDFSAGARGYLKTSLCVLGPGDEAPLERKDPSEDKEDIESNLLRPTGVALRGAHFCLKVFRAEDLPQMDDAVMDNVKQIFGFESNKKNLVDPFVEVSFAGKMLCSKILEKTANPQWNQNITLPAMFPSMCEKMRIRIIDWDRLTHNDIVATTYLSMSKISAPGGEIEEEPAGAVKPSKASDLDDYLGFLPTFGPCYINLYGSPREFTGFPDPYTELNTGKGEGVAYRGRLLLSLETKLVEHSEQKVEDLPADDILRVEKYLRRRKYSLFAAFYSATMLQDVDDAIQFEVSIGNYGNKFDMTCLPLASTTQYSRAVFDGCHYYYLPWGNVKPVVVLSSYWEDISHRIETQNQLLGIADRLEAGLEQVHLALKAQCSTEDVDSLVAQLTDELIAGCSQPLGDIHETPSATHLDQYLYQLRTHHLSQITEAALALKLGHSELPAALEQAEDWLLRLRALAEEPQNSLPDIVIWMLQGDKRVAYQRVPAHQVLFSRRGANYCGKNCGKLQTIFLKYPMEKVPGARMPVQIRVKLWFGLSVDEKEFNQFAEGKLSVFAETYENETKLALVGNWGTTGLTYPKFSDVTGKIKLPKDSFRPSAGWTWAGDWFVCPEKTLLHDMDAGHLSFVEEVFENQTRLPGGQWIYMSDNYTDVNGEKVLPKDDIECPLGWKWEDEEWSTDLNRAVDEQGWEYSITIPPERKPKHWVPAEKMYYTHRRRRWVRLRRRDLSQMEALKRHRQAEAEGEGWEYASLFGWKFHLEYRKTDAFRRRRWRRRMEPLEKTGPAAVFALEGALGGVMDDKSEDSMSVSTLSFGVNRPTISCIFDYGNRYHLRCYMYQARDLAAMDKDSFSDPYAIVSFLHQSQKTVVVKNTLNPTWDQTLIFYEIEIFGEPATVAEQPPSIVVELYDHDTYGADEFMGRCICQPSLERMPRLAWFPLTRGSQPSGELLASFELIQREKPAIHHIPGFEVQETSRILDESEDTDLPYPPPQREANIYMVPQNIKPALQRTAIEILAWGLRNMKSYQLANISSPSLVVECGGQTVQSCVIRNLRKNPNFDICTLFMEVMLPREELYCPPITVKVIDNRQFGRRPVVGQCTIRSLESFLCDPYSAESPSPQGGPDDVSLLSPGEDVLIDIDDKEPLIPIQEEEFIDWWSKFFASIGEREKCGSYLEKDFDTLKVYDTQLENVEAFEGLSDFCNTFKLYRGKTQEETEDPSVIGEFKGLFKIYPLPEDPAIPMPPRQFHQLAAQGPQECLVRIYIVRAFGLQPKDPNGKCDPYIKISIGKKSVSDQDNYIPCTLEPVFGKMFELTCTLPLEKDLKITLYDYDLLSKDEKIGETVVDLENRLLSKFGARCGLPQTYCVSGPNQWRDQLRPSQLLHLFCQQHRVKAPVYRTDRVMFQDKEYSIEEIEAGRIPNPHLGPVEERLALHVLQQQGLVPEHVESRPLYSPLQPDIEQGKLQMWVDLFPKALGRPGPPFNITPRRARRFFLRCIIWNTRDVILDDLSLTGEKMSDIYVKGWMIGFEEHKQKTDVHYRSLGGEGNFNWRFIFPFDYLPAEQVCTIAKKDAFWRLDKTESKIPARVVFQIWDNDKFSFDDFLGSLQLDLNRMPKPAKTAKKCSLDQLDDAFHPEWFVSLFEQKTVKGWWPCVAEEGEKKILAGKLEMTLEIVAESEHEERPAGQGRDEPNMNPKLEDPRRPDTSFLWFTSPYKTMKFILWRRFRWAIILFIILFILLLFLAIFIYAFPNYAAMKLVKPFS

## FKBP8 (from UniProt Q14318)
  Kd: 24 nM
